The supplement of paper PMC9112550, “Optimization of the antimicrobial peptide Bac7 by deep mutational scanning” (BMC Biology, 2022)

Tested on: Escherichia coli TOP10
Assay: shrunken log2 fold change of peptide-encoding DNA abundance (4.5 h post-induction vs induction); higher = less antimicrobial activity (less host growth inhibition)
Conditions: time post-induction: 4.5 h; library: site-saturation at positions 5, 18, 19, 20
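Note: peptides expressed intracellularly from a pBAD plasmid library in pooled LB shake-flask culture, induced with 0.3% L-arabinose, DNA abundance read by NGS, three biological replicates, DESeq2 with apeglm shrinkage.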

| Sequence | shrunken log2 fold change |
| --- | --- |
| RRIRSRPPRLPRPRPRPMQRPRP | 0.281 |
| RRIRMRPPRLPRPRPRPGMYPRP | 0.124 |
| RRIRERPPRLPRPRPRPPYCPRP | -0.275 |
| RRIRPRPPRLPRPRPRPNCMPRP | -0.16 |
| RRIRYRPPRLPRPRPRPGGCPRP | 0.0169 |
| RRIRCRPPRLPRPRPRPGKMPRP | -0.055 |
| RRIRGRPPRLPRPRPRPAISPRP | 0.296 |
| RRIRGRPPRLPRPRPRPWWVPRP | 0.0839 |
| RRIRERPPRLPRPRPRPGQMPRP | 0.0413 |
| RRIRCRPPRLPRPRPRPHGIPRP | -0.0487 |
| RRIRVRPPRLPRPRPRPCITPRP | -0.233 |
| RRIRDRPPRLPRPRPRPETGPRP | -0.0106 |
| RRIRARPPRLPRPRPRPMFVPRP | -0.134 |
| RRIRRRPPRLPRPRPRPKMHPRP | 0.443 |
| RRIRDRPPRLPRPRPRPSVQPRP | 0.111 |
| RRIRLRPPRLPRPRPRPTDTPRP | -0.304 |
| RRIRFRPPRLPRPRPRPINYPRP | -0.0562 |
| RRIRMRPPRLPRPRPRPSEGPRP | -0.00192 |
| RRIRCRPPRLPRPRPRPGWAPRP | 0.606 |
| RRIRGRPPRLPRPRPRPQKWPRP | 0.0681 |
| RRIRDRPPRLPRPRPRPCRFPRP | -0.00146 |
| RRIRYRPPRLPRPRPRPSALPRP | -0.638 |
| RRIRQRPPRLPRPRPRPALCPRP | 0.171 |
| RRIRTRPPRLPRPRPRPRCDPRP | 0.13 |
| RRIRRRPPRLPRPRPRPDTIPRP | -0.15 |

| Sequence | shrunken log2 fold change |
| --- | --- |
| RRIRCRPPRLPRPRPRPYCCPRP | -0.135 |
| RRIRERPPRLPRPRPRPHGKPRP | -0.0244 |
| RRIRDRPPRLPRPRPRPPDKPRP | 0.189 |
| RRIRWRPPRLPRPRPRPTLEPRP | 0.608 |
| RRIRNRPPRLPRPRPRPLFQPRP | -0.421 |
| RRIRFRPPRLPRPRPRPPLSPRP | 0.133 |
| RRIRWRPPRLPRPRPRPVTTPRP | -0.0727 |
| RRIRSRPPRLPRPRPRPSRWPRP | 0.188 |
| RRIRNRPPRLPRPRPRPYYPPRP | -0.141 |
| RRIRNRPPRLPRPRPRPRFYPRP | -0.201 |
| RRIRERPPRLPRPRPRPSKDPRP | -0.664 |
| RRIRVRPPRLPRPRPRPSKIPRP | -0.0852 |
| RRIRQRPPRLPRPRPRPMMIPRP | -0.0862 |
| RRIRLRPPRLPRPRPRPFNHPRP | -0.249 |
| RRIRARPPRLPRPRPRPSFHPRP | -0.215 |
| RRIRDRPPRLPRPRPRPPSLPRP | -0.128 |
| RRIRVRPPRLPRPRPRPEISPRP | -0.122 |
| RRIRIRPPRLPRPRPRPDTKPRP | -0.188 |
| RRIRDRPPRLPRPRPRPSKAPRP | -0.393 |
| RRIRSRPPRLPRPRPRPTGPPRP | -0.0769 |
| RRIRARPPRLPRPRPRPMRFPRP | 0.869 |
| RRIRVRPPRLPRPRPRPTHWPRP | 0.509 |
| RRIRTRPPRLPRPRPRPKHTPRP | -0.0343 |
| RRIRMRPPRLPRPRPRPLNGPRP | -0.00843 |
| RRIRSRPPRLPRPRPRPQQHPRP | 0.0668 |

| Sequence | shrunken log2 fold change |
| --- | --- |
| RRIRERPPRLPRPRPRPKCTPRP | -0.882 |
| RRIRRRPPRLPRPRPRPWCNPRP | -0.543 |
| RRIRNRPPRLPRPRPRPLGFPRP | 0.0608 |
| RRIRNRPPRLPRPRPRPLHMPRP | -0.372 |
| RRIRCRPPRLPRPRPRPTFDPRP | -0.164 |
| RRIRSRPPRLPRPRPRPREQPRP | 0.796 |
| RRIRVRPPRLPRPRPRPCCVPRP | -0.146 |
| RRIRIRPPRLPRPRPRPRISPRP | -0.127 |
| RRIRDRPPRLPRPRPRPELFPRP | 0.184 |
| RRIRCRPPRLPRPRPRPSPTPRP | 0.022 |
| RRIRVRPPRLPRPRPRPLPAPRP | 0.449 |
| RRIRQRPPRLPRPRPRPNANPRP | 0.00568 |
| RRIRSRPPRLPRPRPRPNKDPRP | -0.651 |
| RRIRHRPPRLPRPRPRPNEQPRP | -0.0176 |
| RRIRHRPPRLPRPRPRPWGLPRP | -0.00494 |
| RRIRVRPPRLPRPRPRPAIEPRP | 0.0433 |
| RRIRSRPPRLPRPRPRPHSCPRP | -0.0203 |
| RRIRTRPPRLPRPRPRPEQWPRP | -0.0581 |
| RRIRYRPPRLPRPRPRPYFFPRP | -0.792 |
| RRIRVRPPRLPRPRPRPNFPPRP | 0.0508 |
| RRIRHRPPRLPRPRPRPPILPRP | -0.0767 |
| RRIRMRPPRLPRPRPRPKHCPRP | 0.0651 |
| RRIRRRPPRLPRPRPRPHNWPRP | -0.131 |
| RRIRPRPPRLPRPRPRPMYNPRP | -0.639 |
| RRIRHRPPRLPRPRPRPWTIPRP | -0.0445 |

| Sequence | shrunken log2 fold change |
| --- | --- |
| RRIRRRPPRLPRPRPRPVVFPRP | 0.286 |
| RRIRKRPPRLPRPRPRPWNFPRP | -0.162 |
| RRIRHRPPRLPRPRPRPIAGPRP | 0.0113 |
| RRIRARPPRLPRPRPRPSQVPRP | 0.0429 |
| RRIRMRPPRLPRPRPRPCSCPRP | 0.183 |
| RRIRERPPRLPRPRPRPCITPRP | -0.395 |
| RRIRERPPRLPRPRPRPNMYPRP | -0.976 |
| RRIRQRPPRLPRPRPRPTLNPRP | 0.0729 |
| RRIRDRPPRLPRPRPRPNSMPRP | 0.0952 |
| RRIRDRPPRLPRPRPRPIIWPRP | 0.156 |
| RRIRYRPPRLPRPRPRPNNEPRP | -1.27 |
| RRIRWRPPRLPRPRPRPPTVPRP | 0.144 |
| RRIRPRPPRLPRPRPRPEWEPRP | 0.304 |
| RRIRKRPPRLPRPRPRPKSPPRP | 0.385 |
| RRIRCRPPRLPRPRPRPTYQPRP | -0.346 |
| RRIRARPPRLPRPRPRPKLDPRP | 0.655 |
| RRIRNRPPRLPRPRPRPLIMPRP | -0.48 |
| RRIRVRPPRLPRPRPRPYPLPRP | -0.478 |
| RRIRGRPPRLPRPRPRPYNCPRP | -0.0269 |
| RRIRIRPPRLPRPRPRPNHMPRP | -0.361 |
| RRIRIRPPRLPRPRPRPAGNPRP | -0.0516 |
| RRIRYRPPRLPRPRPRPKACPRP | -0.00227 |
| RRIRKRPPRLPRPRPRPTLKPRP | 0.601 |
| RRIRERPPRLPRPRPRPSCFPRP | -0.322 |
| RRIRCRPPRLPRPRPRPCGIPRP | 0.153 |

| Sequence | shrunken log2 fold change |
| --- | --- |
| RRIRTRPPRLPRPRPRPCMHPRP | -0.0639 |
| RRIRERPPRLPRPRPRPAGGPRP | 0.2 |
| RRIRYRPPRLPRPRPRPSCTPRP | -1.36 |
| RRIRLRPPRLPRPRPRPHGAPRP | 0.0606 |
| RRIRNRPPRLPRPRPRPADYPRP | -0.24 |
| RRIRSRPPRLPRPRPRPGAGPRP | 0.445 |
| RRIRIRPPRLPRPRPRPKNNPRP | -0.878 |
| RRIRSRPPRLPRPRPRPLMYPRP | -0.197 |
| RRIRYRPPRLPRPRPRPWWWPRP | 0.0798 |
| RRIRPRPPRLPRPRPRPPDDPRP | 0.142 |
| RRIRSRPPRLPRPRPRPHMKPRP | 0.427 |
| RRIRDRPPRLPRPRPRPNASPRP | 0.527 |
| RRIRERPPRLPRPRPRPECQPRP | -0.0134 |
| RRIRKRPPRLPRPRPRPYLGPRP | -0.0981 |
| RRIRNRPPRLPRPRPRPMNCPRP | -0.57 |
| RRIRSRPPRLPRPRPRPQMMPRP | -0.143 |
| RRIRGRPPRLPRPRPRPFLGPRP | 0.0188 |
| RRIRMRPPRLPRPRPRPPEEPRP | 2.13 |
| RRIRRRPPRLPRPRPRPYHQPRP | -0.0224 |
| RRIRSRPPRLPRPRPRPRQYPRP | -0.274 |
| RRIRERPPRLPRPRPRPTSPPRP | -0.185 |
| RRIRCRPPRLPRPRPRPQYYPRP | -0.977 |
| RRIRSRPPRLPRPRPRPVTRPRP | -0.538 |
| RRIRWRPPRLPRPRPRPFMWPRP | -0.0278 |
| RRIRVRPPRLPRPRPRPPVVPRP | -0.0362 |

| Sequence | shrunken log2 fold change |
| --- | --- |
| RRIRMRPPRLPRPRPRPKCKPRP | 0.365 |
| RRIRNRPPRLPRPRPRPWIRPRP | -0.399 |
| RRIRPRPPRLPRPRPRPFSGPRP | -0.478 |
| RRIRFRPPRLPRPRPRPGRVPRP | 0.787 |
| RRIRTRPPRLPRPRPRPICIPRP | -0.196 |
| RRIRVRPPRLPRPRPRPRAYPRP | -0.224 |
| RRIRVRPPRLPRPRPRPMGWPRP | 0.202 |
| RRIRTRPPRLPRPRPRPNCDPRP | 1.31 |
| RRIRNRPPRLPRPRPRPKKNPRP | -0.0707 |
| RRIRWRPPRLPRPRPRPGCQPRP | -0.0225 |
| RRIRKRPPRLPRPRPRPVIIPRP | 0.0356 |
| RRIRCRPPRLPRPRPRPHFKPRP | -0.368 |
| RRIRWRPPRLPRPRPRPWKCPRP | -0.01 |
| RRIRGRPPRLPRPRPRPELQPRP | 2.19 |
| RRIRERPPRLPRPRPRPYVIPRP | -0.172 |
| RRIRDRPPRLPRPRPRPVPRPRP | 0.186 |
| RRIRKRPPRLPRPRPRPERQPRP | 0.0351 |
| RRIRYRPPRLPRPRPRPYYWPRP | -0.111 |
| RRIRFRPPRLPRPRPRPLEAPRP | 0.0974 |
| RRIRQRPPRLPRPRPRPDAHPRP | -0.0825 |
| RRIRARPPRLPRPRPRPMIVPRP | -0.262 |
| RRIRCRPPRLPRPRPRPYHPPRP | -0.539 |
| RRIRGRPPRLPRPRPRPTSRPRP | 0.336 |
| RRIRKRPPRLPRPRPRPDQPPRP | -0.018 |
| RRIRDRPPRLPRPRPRPLFWPRP | 0.516 |
